The record followed here is paper PMC10968091, “Crystallization of Ethylene Plant Hormone Receptor—Screening for Structure” (Biomolecules, 2024).

First the molecules themselves.
B1: ETR2^1-186 mT2 (domain or fragment, Arabidopsis thaliana, UniProt Q0WPQ2 1-186, looked up)
chain: MVKEIASWLLILSMVVFVSPVLAINGGGYPRCNCEDEGNSFWSTENILETQRVSDFLIAVAYFSIPIELLYFVSCSNVPFKWVLFEFIAFIVLCGMTHLLHGWTYSAHPFRLMMAFTVFKMLTALVSCATAITLITLIPLLLKVKVREFMLKKKAHELGREVGLILIKKETGFHVRMLTQEIRKSL
notes: Ethylene response 2 (ETR2), Arabidopsis thaliana, residues 1-186 (aa 187-773 removed); transmembrane domain; From pGEX4T-1; The plasmid name and the methods put mT2 next to the C-terminal 10x His-tag; also called ETR2 (aa 1-186); ETR2^1-186 mT2 10x His; source: E. coli C41(DE3)∆(ompF-acrAB), purified (IMAC); not shown: His10, C-terminal, kept
B2: ETR1^1-157 mT2 (domain or fragment, Arabidopsis thaliana, UniProt P49333 1-157, looked up)
chain: MEVCNCIEPQWPADELLMKYQYISDFFIAIAYFSIPLELIYFVKKSAVFPYRWVLVQFGAFIVLCGATHLINLWTFTTHSRTVALVMTTAKVLTAVVSCATALMLVHIIPDLLSVKTRELFLKNKAAELDREMGLIRTQEETGRHVRMLTHEIRSTL
notes: Ethylene response 1 (ETR1), Arabidopsis thaliana, residues 1-157 (aa 158-738 removed); transmembrane domain; From pGEX4T-1; also called ETR1^1-157 mT2 10x His; source: E. coli C41(DE3)∆(ompF-acrAB), purified (IMAC); not shown: His10, C-terminal, kept
B3: ETR1^1-316 (domain or fragment, Arabidopsis thaliana, UniProt P49333 1-316, looked up)
chain: MEVCNCIEPQWPADELLMKYQYISDFFIAIAYFSIPLELIYFVKKSAVFPYRWVLVQFGAFIVLCGATHLINLWTFTTHSRTVALVMTTAKVLTAVVSCATALMLVHIIPDLLSVKTRELFLKNKAAELDREMGLIRTQEETGRHVRMLTHEIRSTLDRHTILKTTLVELGRTLALEECALWMPTRTGLELQLSYTLRHQHPVEYTVPIQLPVINQVFGTSRAVKISPNSPVARLRPVSGKYMLGEVVAVRVPLLHLSNFQINDWPELSTKRYALMVLMLPSDSARQWHVHELELVEVVADQVAVALSHAAILEES
notes: From pETEV16b; also called AtETR1^1-316; ETR1 (aa 1-316); source: E. coli C41(DE3)∆(ompF-acrAB), purified (IMAC); not shown: His10, N-terminal, kept
B4: ETR1^1-407 (domain or fragment, Arabidopsis thaliana, UniProt P49333 1-407, looked up)
chain: MEVCNCIEPQWPADELLMKYQYISDFFIAIAYFSIPLELIYFVKKSAVFPYRWVLVQFGAFIVLCGATHLINLWTFTTHSRTVALVMTTAKVLTAVVSCATALMLVHIIPDLLSVKTRELFLKNKAAELDREMGLIRTQEETGRHVRMLTHEIRSTLDRHTILKTTLVELGRTLALEECALWMPTRTGLELQLSYTLRHQHPVEYTVPIQLPVINQVFGTSRAVKISPNSPVARLRPVSGKYMLGEVVAVRVPLLHLSNFQINDWPELSTKRYALMVLMLPSDSARQWHVHELELVEVVADQVAVALSHAAILEESMRARDLLMEQNVALDLARREAETAIRARNDFLAVMNHEMRTPMHAIIALSSLLQETELTPEQRLMVETILKSSNLLATLMNDVLDLSRLED
notes: Ethylene response 1 (ETR1), Arabidopsis thaliana, residues 1-407; From pETEV16b; also called AtETR1^1-407; source: E. coli C41(DE3)∆(ompF-acrAB), purified (IMAC); not shown: His10, N-terminal, kept

The data set concerns the molecule itself. Briefly: SDS-PAGE and Western blot; IMAC-purified receptor constructs on SDS-PAGE (colloidal Coomassie) and Western blot (anti-GFP-HRP for ETR2^1-186 mT2, anti-His-HRP for the others); SDS-stable dimers seen beside monomers. (A western blot detects proteins with antibodies after separation by electrophoresis.)
In the case of B1, the binding result is given as “binds”.

In the case of B2, the binding result is “binds”.

As for B3, the binding result was “binds”.

In the case of B4, the binding result is on record as “binds”.
